Assay results taken from patent US20250019740.
Read-outs that look alike come from different tables or passages of the source.

Key:
[1] = tested on: synthetic substrate peptide […]
[2] = tested on: MBP-ENLYFQS-GST fusion protein
[3] = biological target: synthetic substrate peptide […]; remark: listed apart in the source

With “TEV variant E5 (K6M, S15L on the TEV-EAV template)” the “activity on the peptide in vitro” value [1] was “six selected clones showed higher activity on the peptide […] (SEQ ID NO:33) compared to TEV-EAV”.

For “TEV variant S6 (E79S, A173G, V219S on the TEV-EAV template)”, the “activity on the peptide in vitro” value [1] was “six selected clones showed higher activity on the peptide […] (SEQ ID NO:33) compared to TEV-EAV”.

“TEV variant E1 (Q74L, S200N on the TEV-EAV template)” was tested, and the “activity on the peptide in vitro” value [1] was “six selected clones showed higher activity on the peptide […] (SEQ ID NO:33) compared to TEV-EAV”.

“TEV variant S7 (E79G, S219R on the TEV-EAV template)” was tested, and the “activity on the peptide in vitro” value [1] was “six selected clones showed higher activity on the peptide […] (SEQ ID NO:33) compared to TEV-EAV”.

For uTEV3, the “percent of fusion cleaved after 30 mins at a 1:200 protease to substrate ratio” value [2] was “compared to only 30% cleavage with uTEV3” and the KM [1] was “the improved catalytic efficiency in uTEV3 appears to be mainly due to a significant KM decrease”.

TEV-S219P was tested, and the “percent of fusion protein digested in 40 minutes at 30° C. at a 1:100 ratio” value [2] was “compared to ˜68% for TEV-EAV and TEV-S219P”.

With “TEV variant S8 (A173D, V219K on the TEV-EAV template)” the “activity on the peptide in vitro” value [1] was “six selected clones showed higher activity on the peptide […] (SEQ ID NO:33) compared to TEV-EAV”.

With “TEV variant E2 (S3I, P8Q, S31T, A231V on the TEV-EAV template)” the “activity on the peptide in vitro” value [1] was “six selected clones showed higher activity on the peptide […] (SEQ ID NO:33) compared to TEV-EAV”.

B1: TEV-EAV, triple mutant TEV variant (G79E, T173A, S219V) (protein)
chain: GESLFKGPRDYNPISSTICHLTNESDGHTTSLYGIGFGPFIITNKHLFRRNNGTLLVQSLHGVFKVKNTTTLQQHLIDERDMIIIRMPKDFPPFPQKLKFREPQREERICLVTNFQTKSMSSMVSDTSCTFPSSDGIFWKHWIQTKDGQCGSPLVSTRDGFIVGIHSASNFANTNNYFTSVPKNFMELLTNQEAQQWVSGWRLNADSVLWGGHKVFMVKPEEPFQPVKEATQLM
For B1, the KM [3] was “KM of eTEV remained unchanged at 65 µM with that of TEV-EAV” and the “turnover rate (kcat)” value [3] was “the turnover rate (kcat) was improved from 0.17 s^-1 to 0.41 s^-1”.

B2: enhanced TEV "eTEV" mutant TEV protease (S3I, P8Q, S31T, E79G, T173A, S219R, A231V) (protein)
chain: ILFKGQRDYNPISSTICHLTNESDGHTTTLYGIGFGPFIITNKHLFRRNNGTLLVQSLHGVFKVKNTTTLQQHLIDGRDMIIIRMPKDFPPFPQKLKFREPQREERICLVTTNFQTKSMSSMVSDTSCTFPSSDGIFWKHWIQTKDGQCGSPLVSTRDGFIVGIHSASNFANTNNYFTSVPKNFMELLTNQEAQQWVSGWRLNADSVLWGGHKVFMRKPEEPFQPVKEVTQLMRRRRR
With B2 the KM [3] was “KM of eTEV remained unchanged at 65 µM with that of TEV-EAV”, the “fold decreased KM compared to TEV-S219P” value [3] was 2.77-fold decreased KM and the “fold improvement in catalytic efficiency (kcat/KM) compared to TEV-EAV” value [3] was 2-fold improvement in catalytic efficiency (kcat/KM) compared to TEV-EAV. The “fold increase in catalytic efficiency relative to the parent TEV-S219P” value [3] was ~8-fold overall increase in catalytic efficiency relative to the parent TEV-S219P, the “fold increased catalytic turnover rate (kcat) compared to TEV-S219P” value [3] was 2.73-fold increased catalytic turnover rate (kcat) and the “turnover rate (kcat)” value [3] was “the turnover rate (kcat) was improved from 0.17 s^-1 to 0.41 s^-1”.
